B1: Rubredoxin, P00268 (parent)
chain: MKKYTCTVCGYIYNPEDGDPDNGVNPGTDFKDIPDDWVCPLCGVGKDQFEEVEE
B2: Rubredoxin, P24297 (parent)
chain: MAKWVCKICGYIYDEDAGDPDNGISPGTKFEELPDDWVCPICGAPKSEFEKLED

What was measured:
[1] = variants of: B1; settings: Clostridium pasteurianum, pH 9.08, Thermal, NMR, Sodium borate 100 mM, reversible: Yes, structure 1IRO, whole UniProt chain shown
[2] = variants of: B2; settings: Pyrococcus furiosus (strain ATCC 43587 / DSM 3638 / JCM 8422 / Vc1), pH 9.08, Thermal, NMR, Sodium borate 100 mM, reversible: Yes, structure 1BRF, whole UniProt chain shown

Row | Variant | Tm [1] [°C] | ddG of mutation (higher = less stable) [1] [kcal/mol] | heat capacity change of unfolding [1] [kcal/mol/K] | unfolding enthalpy (van 't Hoff) [1] [kcal/mol] | ddG of mutation (higher = less stable) ([1]; 107 °C) [kcal/mol] | heat capacity change of unfolding ([1]; 107 °C) [kcal/mol/K] | Tm [2] [°C] | heat capacity change of unfolding [2] [kcal/mol/K] | unfolding enthalpy (van 't Hoff) [2] [kcal/mol] | heat capacity change of unfolding ([2]; 133.6 °C) [kcal/mol/K] | ddG of mutation (higher = less stable) ([2]; 133.6 °C) [kcal/mol]
1 | V24I I33L | 115 | -1.31 | 0.5 | 65 | – | – | – | – | – | – | –
2 | Y4W V24I I33L | 114 | – | 0.5 | 63 | – | – | – | – | – | – | –
3 | I33L | 112 | -0.76 | 0.5 | 64 | -0.76 | 0.5 | – | – | – | – | –
4 | V24I | 110 | -0.36 | 0.5 | 59 | -0.36 | 0.5 | – | – | – | – | –
5 | I24V L33I | – | – | – | – | – | – | 133 | 0.5 | 62 | – | –
6 | I24V | – | – | – | – | – | – | 136 | 0.5 | 74 | 0.5 | –
7 | L33I | – | – | – | – | – | – | – | – | – | 0.5 | 0.88

From FireProtDB (doi:10.1016/j.bpc.2006.10.013)
